# Results published in the supplement of paper PMC10126150.
# ± gives the standard deviation of the averaged measurements.
# System: ATP
# Assay: switch fluorescence ratio, 500 uM ATP over buffer (Cy3 cluster intensity, sum of 5 cycles each) (fold (ratio)); higher = stronger signal-on switching upon ATP binding; sequences stand for … in TCGTCGGCAGCGTCAGATGTGTATAAGAGACAGTTTTTTTTTTTTTTTTTTTTTTTTT…TC
# Conditions: aptamer strand: ATP DNA aptamer (quencher-CACCTGGGGGAGTATTGCGGAGGAAGG + anchor), 100 nM annealed; ATP concentration: 500 uM
# In short: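 Cy3-labelled switching-strand clusters on a modified Illumina MiSeq flow-cell were annealed to 100 nM quencher-labelled ATP aptamer and imaged first in selection buffer, then after 15 min with 500 uM ATP at 22 °C. NaOH stripping and re-annealing separated each of five buffer/ATP cycles, and clusters outside 100-1000 RFU were excluded. The fluorescence ratio sums target-cycle Cy3 intensity over buffer-cycle Cy3 intensity per cluster and averages it per switch-domain sequence.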
# 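Further: ATP exposure 15 min at 22 °C before imaging.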
row,Sequence,switch fluorescence ratio
1,TATGGACTGT,1.021 ± 0.01
2,TATGGAGCCA,1.02 ± 0.032
3,TATGGAGGAT,1.09 ± 0.13
4,TATGGATAGG,0.996 ± 0.014
5,TATGGCCGTG,0.998 ± 0.061
6,TATGGGAATG,1.019 ± 0.0021
7,TATGGGATGT,0.988 ± 0.016
8,TATGGGATTA,1.04 ± 0.064
9,TATGGGATTG,0.998 ± 0.021
10,TATGGGGCAA,1.091 ± 0.0015
11,TATGGGGGAT,1.03 ± 0.093
12,TATGGGGGGT,0.976 ± 0.017
13,TATGGGTAAT,0.975 ± 0.016
14,TATGGGTGGC,1.02 ± 0.11
15,TATGGTAGGG,0.9886 ± 0.0076
16,TATGGTCTGT,0.981 ± 0.042
17,TATGGTGGAG,0.981 ± 0.02
18,TATGGTGGTT,1.12 ± 0.12
19,TATGGTGTTT,1.02 ± 0.036
20,TATGTAAGGG,1.01 ± 0.026
21,TATGTACGCA,1.11 ± 0.018
22,TATGTACGTG,1.02 ± 0.053
23,TATGTACTAA,1.08 ± 0.023
24,TATGTCCGTA,1 ± 0.013
25,TATGTGAAAA,0.9747 ± 0.006

row,Sequence,switch fluorescence ratio
1,TATGTGACTT,1.03 ± 0.0074
2,TATGTGAGTT,1.001 ± 0.0099
3,TATGTGGGGT,0.992 ± 0.026
4,TATGTTAGGA,1.0104 ± 0.00038
5,TATGTTATTT,1.02 ± 0.012
6,TATGTTCCAA,1.01 ± 0.03
7,TATGTTGGTG,0.987 ± 0.018
8,TATGTTGTAC,1.052 ± 0.0086
9,TATGTTGTAT,0.984 ± 0.053
10,TATGTTTCAA,1.017 ± 0.0089
11,TATGTTTCTA,1.0004 ± 0.00054
12,TATGTTTTTC,0.9687 ± 0.0014
13,TATTAAAAGA,0.99 ± 0.03
14,TATTAAAGGG,0.985 ± 0.017
15,TATTAAATTT,1.031 ± 0.0051
16,TATTAACTAG,1.02 ± 0.0022
17,TATTAAGAAA,0.962 ± 0.016
18,TATTAAGG,1.01 ± 0.011
19,TATTAAGGA,0.9762 ± 0.009
20,TATTAAGTAG,1.03 ± 0.038
21,TATTAATAA,1 ± 0.0029
22,TATTAATGTT,0.997 ± 0.019
23,TATTAATTAT,1.01 ± 0.022
24,TATTACAAT,1.03 ± 0.052
25,TATTACCTTA,1.03 ± 0.044

row,Sequence,switch fluorescence ratio
1,TATTACGAAA,1.1 ± 0.032
2,TATTACTCGT,1.01 ± 0.07
3,TATTACTTAG,1.062 ± 0.01
4,TATTACTTGC,1.03 ± 0.042
5,TATTAGGGAT,0.9951 ± 0.0058
6,TATTAGGGGG,0.984 ± 0.048
7,TATTAGGGTG,1.05 ± 0.098
8,TATTAGGTAT,0.961 ± 0.018
9,TATTAGGTCT,0.991 ± 0.045
10,TATTAGTGAT,0.9869 ± 0.0055
11,TATTATATGG,1.03 ± 0.027
12,TATTATCGTA,0.9927 ± 0.0081
13,TATTATGCGG,0.984 ± 0.017
14,TATTATTGCG,0.988 ± 0.011
15,TATTCGCCCA,1.11 ± 0.2
16,TATTCGGATT,0.984 ± 0.03
17,TATTCGGGGG,1.04 ± 0.078
18,TATTCGTGGG,0.956 ± 0.048
19,TATTCGTTCT,0.9985 ± 0.0022
20,TATTCTCATC,1.013 ± 0.0027
21,TATTCTGGTT,1.02 ± 0.05
22,TATTCTTTGA,1.02 ± 0.03
23,TATTGAATTC,1.01 ± 0.016
24,TATTGACTTT,1.28 ± 0.35
25,TATTGAGTTA,1.01 ± 0.033

row,Sequence,switch fluorescence ratio
1,TATTGCTCAC,1.04 ± 0.02
2,TATTGGAGTG,0.966 ± 0.084
3,TATTGGGGCG,0.982 ± 0.017
4,TATTGGGGTT,0.996 ± 0.04
5,TATTGGGTAT,1.03 ± 0.038
6,TATTGGTAGG,0.941 ± 0.019
7,TATTGGTCGT,0.968 ± 0.042
8,TATTGGTTCA,0.996 ± 0.018
9,TATTGGTTTG,1.04 ± 0.045
10,TATTGTGCTT,0.982 ± 0.035
11,TATTGTGTTT,0.9781 ± 0.0039
12,TATTGTTCGC,0.98 ± 0.046
13,TATTGTTTTT,1.01 ± 0.022
14,TATTTAAAAT,0.995 ± 0.046
15,TATTTAAACG,1 ± 0.011
16,TATTTAGTAG,1.006 ± 0.0072
17,TATTTAGTTG,1 ± 0.024
18,TATTTATAAA,0.998 ± 0.025
19,TATTTATTAG,0.991 ± 0.029
20,TATTTCAGTC,1.01 ± 0.02
21,TATTTCGAAT,1.11 ± 0.18
22,TATTTCGTTG,0.998 ± 0.059
23,TATTTGAATG,1.01 ± 0.028
24,TATTTGAGTT,0.96526 ± 0.00075
25,TATTTGATGT,0.991 ± 0.029

row,Sequence,switch fluorescence ratio
1,TATTTGGAAA,0.991 ± 0.036
2,TATTTGGACG,1.05 ± 0.068
3,TATTTGGAGT,1.012 ± 0.0022
4,TATTTGGGCA,1.01 ± 0.041
5,TATTTGGTGA,0.993 ± 0.025
6,TATTTGGTGG,1.02 ± 0.027
7,TATTTGGTT,0.991 ± 0.024
8,TATTTGTAAT,1.03 ± 0.02
9,TATTTGTAGG,1.05 ± 0.045
10,TATTTGTGTT,0.997 ± 0.016
11,TATTTGTTCT,1 ± 0.024
12,TATTTTAATT,0.991 ± 0.017
13,TATTTTACGT,1.01 ± 0.013
14,TATTTTCGTA,1 ± 0.021
15,TATTTTCTGT,0.997 ± 0.036
16,TATTTTGGAA,0.986 ± 0.044
17,TATTTTGGGG,0.988 ± 0.019
18,TATTTTGTTT,0.99 ± 0.014
19,TATTTTTAGG,1 ± 0.032
20,TCAAAAAAAT,1.02 ± 0.091
21,TCAAAATTTA,1.02 ± 0.048
22,TCAAACAGGG,1.04 ± 0.051
23,TCAAACATTT,1.016 ± 0.0076
24,TCAAACCGGT,0.983 ± 0.043
25,TCAAACTTTA,1.03 ± 0.025

row,Sequence,switch fluorescence ratio
1,TCAAAGACGG,1.02 ± 0.016
2,TCAAAGCAAA,1.41 ± 0.077
3,TCAAATCGGG,0.999 ± 0.014
4,TCAAATGGTA,1.006 ± 0.0037
5,TCAAATTCGG,1.01 ± 0.011
6,TCAACAACCA,1.06 ± 0.017
7,TCAACCGGGA,1.06 ± 0.09
8,TCAACGCCCC,1.28 ± 0.055
9,TCAACTATTA,0.977 ± 0.018
10,TCAAGATA,1.13 ± 0.21
11,TCAAGATTTT,0.975 ± 0.025
12,TCAAGGCACA,1.089 ± 0.01
13,TCAAGGCCGG,1.02 ± 0.035
14,TCAAGGGGCT,1 ± 0.013
15,TCAAGGGGGC,0.9915 ± 0.0018
16,TCAAGGGTTA,1.02 ± 0.011
17,TCAAGTGCAG,0.99 ± 0.027
18,TCAAGTTTTG,0.972 ± 0.015
19,TCAATAGAGG,1.05 ± 0.034
20,TCAATAGGTT,1.01 ± 0.024
21,TCAATGCGCC,1.46 ± 0.4
22,TCAATGGGAA,0.967 ± 0.026
23,TCAATGGTTG,0.988 ± 0.028
24,TCAATTTCAC,1.9 ± 1.3
25,TCAATTTTGT,0.997 ± 0.022

row,Sequence,switch fluorescence ratio
1,TCACAGTTGG,1.032 ± 0.0034
2,TCACATTATA,1.009 ± 0.0078
3,TCACCTTGGA,1.05 ± 0.096
4,TCACGGTGCT,1.15 ± 0.19
5,TCACGTAGGC,1.04 ± 0.053
6,TCACGTGGTT,1.03 ± 0.016
7,TCACTCTATC,1.0455 ± 0.00057
8,TCACTGGGTT,1.01 ± 0.068
9,TCACTGGTCT,0.9849 ± 0.0037
10,TCACTGGTTG,1.01 ± 0.011
11,TCACTTGGGT,0.996 ± 0.036
12,TCAGAAAGTG,1 ± 0.041
13,TCAGACAGCG,1.03 ± 0.053
14,TCAGACGTTC,1.07 ± 0.05
15,TCAGACGTTT,1.011 ± 0.009
16,TCAGACTGCG,0.999 ± 0.023
17,TCAGAGGATC,0.961 ± 0.017
18,TCAGAGGTAT,1.02 ± 0.014
19,TCAGATAGGG,0.968 ± 0.017
20,TCAGATGTCT,1.03 ± 0.055
21,TCAGCATGTC,1.27 ± 0.036
22,TCAGCGAATT,0.98 ± 0.015
23,TCAGCGTGTC,0.9648 ± 0.0079
24,TCAGCTGGGG,0.9799 ± 0.0058
25,TCAGGAATTT,1.68 ± 1.2

row,Sequence,switch fluorescence ratio
1,TCAGGAGTAA,1.82 ± 0.12
2,TCAGGATGGA,1 ± 0.018
3,TCAGGATTGA,0.98 ± 0.036
4,TCAGGCCCGT,1.01 ± 0.026
5,TCAGGGAGTA,1.04 ± 0.053
6,TCAGGGATGG,0.984 ± 0.042
7,TCAGGGGAGG,1.03 ± 0.036
8,TCAGGGGCAT,1.18 ± 0.3
9,TCAGGGGCCT,1.03 ± 0.044
10,TCAGGGGTT,1.15 ± 0.12
11,TCAGGGTGCT,1.1 ± 0.029
12,TCAGGGTTGC,1.03 ± 0.025
13,TCAGGTAATG,0.98 ± 0.033
14,TCAGGTAGTG,0.9875 ± 0.0078
15,TCAGGTATCG,1 ± 0.021
16,TCAGGTATGT,1.01 ± 0.038
17,TCAGGTTAGT,1.02 ± 0.022
18,TCAGTAAATT,0.965 ± 0.055
19,TCAGTAGGCA,1.01 ± 0.011
20,TCAGTCCTAT,1 ± 0.026
21,TCAGTCGGAT,0.9768 ± 0.0078
22,TCAGTGAGTG,1 ± 0.033
23,TCAGTGCTGT,1 ± 0.035
24,TCAGTGCTTA,1.01 ± 0.038
25,TCAGTGGATG,0.9794 ± 0.0032
